T1: RGG3ΔRGG (UniProt P35637 449-526, del468-506)
T1 chain: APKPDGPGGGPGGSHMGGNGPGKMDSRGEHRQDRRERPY

B1: ssDNA (ssDNA)
DNA: AGGGTTAGTGTTAGTGTTAGGG
B2: Htelo (structured_DNA)
DNA: AGGGTTAGGGTTAGGGTTAGGG
B3: TERRA (structured_RNA)
RNA: UUAGGGUUAGGGUUAGGGUUAGGG
B4: ssRNA (ssRNA)
RNA: UUAGGGUUAGUGUUAGUGUUAGGG
B5: dsRNA (dsRNA)
RNA 1: UUAGGGUUAGGGUUAGGGUUAGGG
RNA 2: CCCUAACCCUAACCCUAACCCUAA
B6: dsDNA (dsDNA)
DNA 1: AGGGTTAGGGTTAGGGTTAGGG
DNA 2: CCCTAACCCTAACCCTAACCCT

Key:
Test in all cases: EMSA
RGG3ΔRGG = target: T1, RGG3ΔRGG
TLS/FUSΔP = TLS/FUSΔP (UniProt P35637 1-526, del449-468)
TLS/FUSΔR = TLS/FUSΔR (UniProt P35637 1-506)
RGG3 = RGG3 (UniProt P35637 449-526)
RGG3ΔP = RGG3ΔP (UniProt P35637 469-526)
[1] = target: RBD (RGG1-RGG2-RGG3 containing) (UniProt P35637 212-526)
TLS/FUS = TLS/FUS (UniProt P35637 1-526)

TLS/FUSΔR, sequence (P35637 1-506, stated change not applied): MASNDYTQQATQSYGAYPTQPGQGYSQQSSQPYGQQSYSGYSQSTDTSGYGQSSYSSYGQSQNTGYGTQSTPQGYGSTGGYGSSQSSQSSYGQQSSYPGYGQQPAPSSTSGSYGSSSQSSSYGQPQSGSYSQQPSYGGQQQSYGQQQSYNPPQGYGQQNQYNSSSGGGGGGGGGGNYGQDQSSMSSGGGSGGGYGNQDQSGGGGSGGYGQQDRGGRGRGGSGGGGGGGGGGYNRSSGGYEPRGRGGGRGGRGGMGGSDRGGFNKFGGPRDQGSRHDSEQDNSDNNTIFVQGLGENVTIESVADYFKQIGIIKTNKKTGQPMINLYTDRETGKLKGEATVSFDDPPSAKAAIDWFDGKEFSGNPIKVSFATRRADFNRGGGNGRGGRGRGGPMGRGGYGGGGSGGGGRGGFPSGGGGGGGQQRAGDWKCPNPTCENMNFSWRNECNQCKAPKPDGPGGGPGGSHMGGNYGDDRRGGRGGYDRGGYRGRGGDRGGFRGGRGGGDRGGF
RBD (RGG1-RGG2-RGG3 containing), sequence (P35637 212-526): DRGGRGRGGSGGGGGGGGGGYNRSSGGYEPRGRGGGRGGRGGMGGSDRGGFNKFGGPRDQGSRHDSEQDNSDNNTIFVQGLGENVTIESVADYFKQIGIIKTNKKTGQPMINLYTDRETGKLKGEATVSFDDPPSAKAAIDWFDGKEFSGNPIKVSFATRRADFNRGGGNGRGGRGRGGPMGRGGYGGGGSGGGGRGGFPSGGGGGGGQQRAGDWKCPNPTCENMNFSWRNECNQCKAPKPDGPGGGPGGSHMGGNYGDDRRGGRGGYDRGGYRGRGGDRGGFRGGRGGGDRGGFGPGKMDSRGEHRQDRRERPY

Row | Binder | binding result (RGG3ΔRGG) | binding result (TLS/FUSΔP) | binding result (TLS/FUSΔR) | binding result (RGG3) | binding result (RGG3ΔP) | Kd [1] [nM] | binding result (TLS/FUS)
1 | B1 | no binding | no binding | no binding | no binding | – | – | –
2 | B2 | no binding | no binding | no binding | – | no binding | 6.7 ± 2 | –
3 | B3 | no binding | no binding | no binding | – | no binding | 6.2 ± 2 | –
4 | B4 | no binding | no binding | no binding | no binding | – | – | binds
5 | B5 | – | no binding | no binding | – | – | – | –
6 | B6 | – | no binding | no binding | – | – | – | –
